Test results as given in patent US7038112B2, “Fatty acid elongases” (Miami University, priority 1997, dated 2006).
Where two headings read alike, the source gives them in different places.

Columns and labels:
EL2 = target: T1, EL2 (Arabidopsis thaliana, UniProt Q9SYZ0); experiment: 18:0-CoA elongation by EL2 microsomes in standard reaction mix containing cerulenin; type: biochemical
T1 construct: Yeast cultures containing full-length EL1 in λYES and full-length EL2 in pYEUra3 were grown in the presence of galactose or glucose; made in house; microsomes of galactose-induced cells
T1 sequence (Q9SYZ0 36-493): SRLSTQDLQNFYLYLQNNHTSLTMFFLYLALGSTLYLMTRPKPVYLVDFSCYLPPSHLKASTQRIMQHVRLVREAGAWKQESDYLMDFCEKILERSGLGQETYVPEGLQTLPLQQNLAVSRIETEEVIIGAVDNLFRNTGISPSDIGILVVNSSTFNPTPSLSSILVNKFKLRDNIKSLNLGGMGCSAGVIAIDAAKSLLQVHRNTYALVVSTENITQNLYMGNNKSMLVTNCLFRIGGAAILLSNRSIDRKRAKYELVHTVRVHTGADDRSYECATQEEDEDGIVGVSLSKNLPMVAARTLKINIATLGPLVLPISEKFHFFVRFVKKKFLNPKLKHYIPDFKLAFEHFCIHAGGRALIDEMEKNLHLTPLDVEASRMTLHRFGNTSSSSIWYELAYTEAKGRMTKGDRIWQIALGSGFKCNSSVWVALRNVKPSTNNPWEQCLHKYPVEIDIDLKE
Procedure: (§1) Fatty acid elongase activity was measured essentially as described in Hlousek-Radojcic, A. et al., Plant J. 8:803–809 (1995). Briefly, the standard elongation reaction mix contained 80 mM Hepes-KOH, pH 7.2, 20 mM MgCl2, 500 μM NADPH, 1 mM ATP, 100 μM malonyl-CoA, 10 μM CoA-SH and 15 μM radioactive acyl-CoA substrate. The radiolabeled substrate was either [1^−14C]18:1-CoA (50 uCi μmol^−1), [1^−14C]18:0-CoA (55 uCi μmol^−1), or [1^−14C]16:0-CoA (54 uCi μmol^−1). The reaction was initiated by the addition of yeast microsomes (5 μg protein) and the mixture incubated at 30° C. for the indicated period of time. The final reaction volume was 25 μl.
(§2) Methyl esters of the acyl-CoA elongation products were prepared as described in Example 1. Methyl esters were separated on reversed phase silica gel KC18 TLC plates (Whatman, […] thick), quantified by phosphorimaging, and analyzed on by ImageQuant software (Molecular Dynamics, Inc., Sunnyvale, Calif.). The detection limit for each product is about 0.001 nanomoles per min. per mg microsomal protein, depending on the phosphorimage exposure time.
(§3) In a third experiment, microsomes from induced and uninduced cultures containing EL1 or EL2 were incubated in the absence of cofactors involved in the β-ketoacyl condensation reaction. Cultures were induced and microsomes were prepared as described in Example 2. In vitro assays were carried out as described in Example 2, except that either ATP, CoASH or both were omitted from the enzyme reaction mixture.

EL1 = target: T2, EL1 (Arabidopsis thaliana, UniProt Q9MAM3); experiment: 18:0-CoA elongation by EL1 microsomes in standard reaction mix containing cerulenin; type: biochemical
T2 construct: Yeast cultures containing full-length EL1 in λYES and full-length EL2 in pYEUra3 were grown in the presence of galactose or glucose; made in house; microsomes of galactose-induced cells
T2 sequence (Q9MAM3 9-528 limits assumed): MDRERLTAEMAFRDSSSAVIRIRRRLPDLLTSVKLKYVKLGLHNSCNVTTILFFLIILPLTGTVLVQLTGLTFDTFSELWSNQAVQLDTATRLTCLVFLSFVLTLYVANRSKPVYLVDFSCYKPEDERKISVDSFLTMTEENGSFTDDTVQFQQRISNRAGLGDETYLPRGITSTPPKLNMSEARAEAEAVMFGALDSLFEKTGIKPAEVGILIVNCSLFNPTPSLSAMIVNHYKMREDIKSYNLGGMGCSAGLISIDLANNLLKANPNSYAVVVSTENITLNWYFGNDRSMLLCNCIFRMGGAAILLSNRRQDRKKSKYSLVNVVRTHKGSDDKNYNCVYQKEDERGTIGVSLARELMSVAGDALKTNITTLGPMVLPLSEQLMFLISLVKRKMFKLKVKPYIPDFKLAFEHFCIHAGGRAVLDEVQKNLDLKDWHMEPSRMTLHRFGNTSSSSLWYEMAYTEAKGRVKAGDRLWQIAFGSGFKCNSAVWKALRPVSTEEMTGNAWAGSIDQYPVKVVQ
Procedure: as §1, §2, §3

[1] = In vitro fatty acid elongation assay with yeast microsomes, 16:0 acyl-CoA substrate; type: biochemical, Saccharomyces cerevisiae
Procedure: (§4) Transformed yeast cells were grown in the presence of either glucose or galactose (2% w/v) as described in Example 1. Cells were harvested by centrifugation at 5000×g for 10 min and washed with 10 ml ice cold isolation buffer (IB), which contains 80 mM Hepes-KOH, pH 7.2, 5 mM EGTA, 5 mM EDTA, 10 mM KC1, 320 mM sucrose and 2 mM DTT). Cells were then resuspended in enough IB to fill a 1.7 ml tube containing 700 μl of 0.5 μm glass beads and yeast microsomes were isolated from the cells essentially as described in Tillman, T. and Bell, R., J. Biol. Chem. 261:9144–9149 (1986). The microsomal membrane pellet was recovered by centrifugation at 252,000×g for 60 min. The pellet was rinsed by resuspending in 40 ml fresh IB and again recovered by centrifugation at 252000×g for 60 min. Microsomal pellets were resuspended in a minimal volume of IB, and the protein concentration adjusted to 2.5 μg μl^−1 by addition of IB containing 15% glycerol. Microsomes were frozen on dry ice and stored at −80° C. The protein concentration in microsomes was determined by the Bradford method (Bradford, 1976).
as §1, §2

[2] = system: Saccharomyces cerevisiae strain AB1380; experiment: Fatty acid composition of yeast cells transformed with pYEUra3/FAE1; type: cell-based; details: galactose-induced yeast containing the FAE1 coding sequence
Procedure: Yeast transformed with pYEUra3 having FAE1 operably linked to the GAL1 promoter were grown in the presence of galactose or glucose and were analyzed for the expression of FAE1. As a control, yeast transformed with pYEUra3 containing no insert were also assayed. Analysis of such control preparations yielded fatty acid compositions and fatty acid elongation rates similar to those of yeast transformed with pYEUra3/FAE1. and grown with glucose as the carbon source.
The fatty acid composition of yeast cells grown in the presence of galactose was compared to that of cells grown in the presence of glucose, to determine if VLCFA were found in the galactose-induced cells.
Transformed yeast cells were grown overnight in YPD media at 30° C. with vigorous shaking. One hundred μl of the overnight culture were used to inoculate 40 ml of complete minimal uracil dropout media (CM-Ura) supplemented with either glucose or galactose (2% w/v). Cultures were grown at 30° C. to an OD600 of approximately 1.3 to 1.5. Cells were harvested by centrifugation at 5000×g for 10 min. Total lipids were extracted from the cells with 2 volumes of 4N KOH in 100% methanol for 60 min. at 80° C. […] Methyl esters were analyzed on an HP 5890 series II gas chromatograph equipped with a 5771MSD and 7673 auto injector (Hewlett-Packard, Cincinnati, Ohio.). […]

[3] = In vitro fatty acid elongation assay with yeast microsomes, 18:0 acyl-CoA substrate; type: biochemical, Saccharomyces cerevisiae
Procedure: as §4, §1, §2
(§5) Yeast cultures containing full-length EL1 in λYES and full-length EL2 in pYEUra3 were grown in the presence of galactose or glucose as described in Example 2. Microsomes were then prepared from each of the cultures and fatty acid elongation assays were carried out as described in Example 2.
(§6) In the first experiment, microsomes were prepared from galactose-induced cultures of EL1, EL2 and FAE1, and incubated with either [1-^14C] 18:0 acyl-CoA or [1-^14C] 18:1 acyl-CoA as substrate. The amounts of various reaction products synthesized after 30 minutes (min) were determined as described in Example 2.
In a second experiment, microsomes were prepared from galactose-induced and from glucose-repressed yeast cultures containing EL1 or EL2 coding sequences. The microsomal preparations were incubated with either 18:0 acyl-CoA or 18:1 acyl-CoA as substrate and the fatty acid reaction products determined as described above. […]

[4] = type: biochemical, Saccharomyces cerevisiae
Procedure: as §4, §1, §2, §5, §6
In a second experiment, microsomes were prepared from galactose-induced and from glucose-repressed yeast cultures containing EL1 or EL2 coding sequences. The microsomal preparations were incubated with either 18:0 acyl-CoA or 18:1 acyl-CoA as substrate and the fatty acid reaction products determined as described above.

[5] = EL2, galactose-induced, +Cer 0.01 mM cerulenin, average of two experiments
[6] = EL1, galactose-induced, +Cer 0.01 mM cerulenin, average of two experiments
[7] = 18:0-CoA substrate, galactose-induced, 30 min, first experiment
[8] = 18:1-CoA substrate, galactose-induced, 30 min, first experiment
[9] = microsomes from galactose-induced cells

Molecule: C/C=C/C/C=C/CCC(=O)[C@H]1O[C@H]1C(N)=O [cerulenin]
- inhibition of KAS activity of EL2 (EL2; 0.01 mM cerulenin): does not inhibit
- 20:0 product as a percent of total products formed (EL2; [5]): 41.8%
- 22:0 product as a percent of total products formed (EL2; [5]): 16.1%
- 24:0 product as a percent of total products formed (EL2; [5]): 20.4%
- 26:0 product as a percent of total products formed (EL2; [5]): 21.8%
- Total products as a percent of total products formed (EL2; [5]): 100.0%
- inhibition of KAS activity of EL1 (EL1; 0.01 mM cerulenin): does not inhibit
- 20:0 product as a percent of total products formed (EL1; [6]): 46.7%
- 22:0 product as a percent of total products formed (EL1; [6]): 16.2%
- 24:0 product as a percent of total products formed (EL1; [6]): 17.7%
- 26:0 product as a percent of total products formed (EL1; [6]): 19.4%
- Total products as a percent of total products formed (EL1; [6]): 100.0%

B1: FAE1: Known Arabidopsis FAE1 elongase β-ketoacyl synthase expressed in yeast, used as comparator (protein, UniProt Q38860 1-506, looked up)
3-ketoacyl-CoA synthase 18: MTSVNVKLLYRYVLTNFFNLCLFPLTAFLAGKASRLTINDLHNFLSYLQHNLITVTLLFAFTVFGLVLYIVTRPNPVYLVDYSCYLPPPHLKVSVSKVMDIFYQIRKADTSSRNVACDDPSSLDFLRKIQERSGLGDETYSPEGLIHVPPRKTFAASREETEKVIIGALENLFENTKVNPREIGILVVNSSMFNPTPSLSAMVVNTFKLRSNIKSFNLGGMGCSAGVIAIDLAKDLLHVHKNTYALVVSTENITQGIYAGENRSMMVSNCLFRVGGAAILLSNKSGDRRRSKYKLVHTVRTHTGADDKSFRCVQQEDDESGKIGVCLSKDITNVAGTTLTKNIATLGPLILPLSEKFLFFATFVAKKLLKDKIKHYYVPDFKLAVDHFCIHAGGRAVIDELEKNLGLSPIDVEASRSTLHRFGNTSSSSIWYELAYIEAKGRMKKGNKAWQIALGSGFKCNSAVWVALRNVKASANSPWQHCIDRYPVKIDSDLSKSKTHVQNGRS
- FAE1 elongase KAS activity, difference in 16:0 elongation rates between induced and uninduced microsomes ([1]; induced minus uninduced): 5.7 nmol mg protein^−1
- 16:0-CoA elongation by microsomes from induced cells, higher than uninduced cells ([1]; induced vs uninduced): more than 50%
- total rate of elongation of [14C]16:0-CoA ([1]; microsomes from induced cells, at 30 min): 15.8 nmol mg protein^−1
- synthesis of 20:0 CoA from the 16:0 CoA substrate ([1]; microsomes from induced yeast): 4.2 nmol mg protein^−1
- very long chain fatty acids in transformed yeast cells [2]: appearance of both 20:1 and 22:1 acyl-CoA products
- (%) 20:0 acyl-CoA product [3, 7]: 64.3%
- (%) 22:0 acyl-CoA product [3, 7]: 18.6%
- (%) 24:0 acyl-CoA product [3, 7]: 10.7%
- (%) 26:0 acyl-CoA product [3, 7]: 6.3%
- (%) Total acyl-CoA products [3, 7]: 100.0%
- Rate, 20:0 acyl-CoA product [3, 7]: 0.369 Nanomoles/minute/mg of microsomal protein
- Rate, 22:0 acyl-CoA product [3, 7]: 0.113 Nanomoles/minute/mg of microsomal protein
- Rate, 24:0 acyl-CoA product [3, 7]: 0.065 Nanomoles/minute/mg of microsomal protein
- Rate, 26:0 acyl-CoA product [3, 7]: 0.038 Nanomoles/minute/mg of microsomal protein
- Rate, Total acyl-CoA products [3, 7]: 0.585 Nanomoles/minute/mg of microsomal protein
- synthesis of 20:0 CoA from the 18:0 CoA substrate ([3]; microsomes from induced yeast): 5.1 nmol mg protein^−1
- increase in 18:1 CoA elongation, microsomes from induced vs uninduced cells [4]: about 18 fold
- (%) 20:1 acyl-CoA product [4, 8]: 84.6%
- (%) 22:1 acyl-CoA product [4, 8]: 15.4%
- (%) 24:1 acyl-CoA product [4, 8]: 0.0%
- (%) 26:1 acyl-CoA product [4, 8]: 0.0%
- (%) Total acyl-CoA products [4, 8]: 100.0%
- Rate, 20:1 acyl-CoA product [4, 8]: 1.131 Nanomoles/minute/mg of microsomal protein
- Rate, 22:1 acyl-CoA product [4, 8]: 0.206 Nanomoles/minute/mg of microsomal protein
- Rate, 24:1 acyl-CoA product [4, 8]: 0.0 Nanomoles/minute/mg of microsomal protein
- Rate, 26:1 acyl-CoA product [4, 8]: 0.0 Nanomoles/minute/mg of microsomal protein
- Rate, Total acyl-CoA products [4, 8]: 1.337 Nanomoles/minute/mg of microsomal protein
- rate of elongation of oleoyl-CoA relative to rate of elongation of 16:0-CoA [4, 9]: about 2 fold
- rate of elongation of oleoyl-CoA relative to rate of elongation of 18:0-CoA [4, 9]: ~3 fold
